Target: Spt6-YW with a C-terminal 3XFLAG epitope tag (S. cerevisiae) (UniProt P23615)
Experiment: co-IP

UniProt P23615, sequence (P23615 whole entry): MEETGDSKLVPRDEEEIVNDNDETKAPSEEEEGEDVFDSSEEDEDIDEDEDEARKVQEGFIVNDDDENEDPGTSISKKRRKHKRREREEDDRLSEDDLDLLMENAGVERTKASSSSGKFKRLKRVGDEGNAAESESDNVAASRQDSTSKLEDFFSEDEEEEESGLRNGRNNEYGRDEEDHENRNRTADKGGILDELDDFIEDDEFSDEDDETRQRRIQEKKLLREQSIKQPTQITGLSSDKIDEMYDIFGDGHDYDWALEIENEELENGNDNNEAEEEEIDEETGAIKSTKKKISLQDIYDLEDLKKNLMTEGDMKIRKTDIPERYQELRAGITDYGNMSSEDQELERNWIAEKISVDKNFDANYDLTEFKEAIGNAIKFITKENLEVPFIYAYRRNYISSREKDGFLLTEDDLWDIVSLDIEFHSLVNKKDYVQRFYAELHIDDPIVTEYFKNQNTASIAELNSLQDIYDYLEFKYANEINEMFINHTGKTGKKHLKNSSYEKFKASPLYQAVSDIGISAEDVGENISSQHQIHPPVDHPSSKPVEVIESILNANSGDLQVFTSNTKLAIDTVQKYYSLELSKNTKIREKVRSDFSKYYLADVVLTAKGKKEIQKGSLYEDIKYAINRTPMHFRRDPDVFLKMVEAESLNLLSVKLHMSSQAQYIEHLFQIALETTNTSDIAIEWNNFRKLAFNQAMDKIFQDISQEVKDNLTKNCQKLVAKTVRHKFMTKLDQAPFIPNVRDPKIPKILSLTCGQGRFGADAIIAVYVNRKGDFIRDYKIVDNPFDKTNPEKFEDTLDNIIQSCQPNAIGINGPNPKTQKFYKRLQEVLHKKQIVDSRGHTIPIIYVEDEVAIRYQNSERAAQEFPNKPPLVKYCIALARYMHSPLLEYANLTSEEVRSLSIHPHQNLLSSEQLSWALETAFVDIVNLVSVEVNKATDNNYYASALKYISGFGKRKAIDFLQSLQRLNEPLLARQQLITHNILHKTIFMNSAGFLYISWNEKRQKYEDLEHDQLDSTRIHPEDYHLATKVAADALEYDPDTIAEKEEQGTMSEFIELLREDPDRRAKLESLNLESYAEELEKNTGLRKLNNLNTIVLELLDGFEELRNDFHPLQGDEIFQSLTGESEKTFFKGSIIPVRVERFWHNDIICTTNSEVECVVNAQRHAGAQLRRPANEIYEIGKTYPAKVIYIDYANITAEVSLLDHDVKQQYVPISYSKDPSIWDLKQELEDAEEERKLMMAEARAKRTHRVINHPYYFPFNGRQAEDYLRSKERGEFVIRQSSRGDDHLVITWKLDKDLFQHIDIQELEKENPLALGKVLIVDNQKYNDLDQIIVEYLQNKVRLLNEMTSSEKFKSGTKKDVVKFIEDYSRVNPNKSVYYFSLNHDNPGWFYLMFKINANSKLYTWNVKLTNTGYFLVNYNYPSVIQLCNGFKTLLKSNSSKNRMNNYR

- fold reduction of co-immunoprecipitation against wild-type Spt6: 2 fold
B1: Mcm4-V5 (natural protein)
chain: MSQQSSSPTKEDNNSSSPVVPNPDSVPPQLSSPALFYSSSSSQGDIYGRNNSQNLSQGEGNIRAAIGSSPLNFPSSSQRQNSDVFQSQGRQGRIRSSASASGRSRYHSDLRSDRALPTSSSSLGRNGQNRVHMRRNDIHTSDLSSPRRIVDFDTRSGVNTLDTSSSSAPPSEASEPLRIIWGTNVSIQECTTNFRNFLMSFKYKFRKILDEREEFINNTTDEELYYIKQLNEMRELGTSNLNLDARNLLAYKQTEDLYHQLLNYPQEVISIMDQTIKDCMVSLIVDNNLDYDLDEIETKFYKVRPYNVGSCKGMRELNPNDIDKLINLKGLVLRSTPVIPDMKVAFFKCNVCDHTMAVEIDRGVIQEPARCERIDCNEPNSMSLIHNRCSFADKQVIKLQETPDFVPDGQTPHSISLCVYDELVDSCRAGDRIEVTGTFRSIPIRANSRQRVLKSLYKTYVDVVHVKKVSDKRLDVDTSTIEQELMQNKVDHNEVEEVRQITDQDLAKIREVAAREDLYSLLARSIAPSIYELEDVKKGILLQLFGGTNKTFTKGGRYRGDINILLCGDPSTSKSQILQYVHKITPRGVYTSGKGSSAVGLTAYITRDVDTKQLVLESGALVLSDGGVCCIDEFDKMSDSTRSVLHEVMEQQTISIAKAGIITTLNARSSILASANPIGSRYNPNLPVTENIDLPPPLLSRFDLVYLVLDKVDEKNDRELAKHLTNLYLEDKPEHISQDDVLPVEFLTMYISYAKEHIHPIITEAAKTELVRAYVGMRKMGDDSRSDEKRITATTRQLESMIRLAEAHAKMKLKNVVELEDVQEAVRLIRSAIKDYATDPKTGKIDMNLVQTGKSVIQRKLQEDLSREIMNVLKDQASDSMSFNELIKQINEHSQDRVESSDIQEALSRLQQEDKVIVLGEGVRRSVRLNNRV

Reference: publication doi:10.1101/2022.04.27.489770
